Target: T1, IntC3 (mutant phage lambda integrase) (Enterobacteria phage lambda) (UniProt P03700)
T1 sequence: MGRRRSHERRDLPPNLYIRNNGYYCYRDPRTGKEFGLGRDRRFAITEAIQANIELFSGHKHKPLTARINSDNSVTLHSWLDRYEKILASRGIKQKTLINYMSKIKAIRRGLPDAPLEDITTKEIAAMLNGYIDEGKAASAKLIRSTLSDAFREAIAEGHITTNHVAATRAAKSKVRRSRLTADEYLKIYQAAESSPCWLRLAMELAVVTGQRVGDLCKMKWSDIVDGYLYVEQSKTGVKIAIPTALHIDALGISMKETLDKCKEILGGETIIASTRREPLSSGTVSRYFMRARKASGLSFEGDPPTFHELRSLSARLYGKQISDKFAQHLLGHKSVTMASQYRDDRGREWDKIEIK
Assay: cell_activity
Settings: E. coli MG1655-ISC, scIHF2 co-expressed, arabinose 70 min

21 bp attB homologue in pattPhae2(attL)
activity (% recombination) (recombination with attL homologue): > 90

121 bp attL homologue in pattPhae2(attL)
activity (% recombination) (recombination with attB homologue): > 90
